# Data: patent publication US20030143595A1 (Harvard, published 2003)
# T1: murine HIP polypeptide (mouse hedgehog interacting protein) (mouse, UniProt Q7TN16 16-700)
# T1 construct: In the expression cloning screen the protein was expressed in cells from a mouse limb bud cDNA library plasmid; also called Mouse HIP; mouse HIP clone
# T1 sequence: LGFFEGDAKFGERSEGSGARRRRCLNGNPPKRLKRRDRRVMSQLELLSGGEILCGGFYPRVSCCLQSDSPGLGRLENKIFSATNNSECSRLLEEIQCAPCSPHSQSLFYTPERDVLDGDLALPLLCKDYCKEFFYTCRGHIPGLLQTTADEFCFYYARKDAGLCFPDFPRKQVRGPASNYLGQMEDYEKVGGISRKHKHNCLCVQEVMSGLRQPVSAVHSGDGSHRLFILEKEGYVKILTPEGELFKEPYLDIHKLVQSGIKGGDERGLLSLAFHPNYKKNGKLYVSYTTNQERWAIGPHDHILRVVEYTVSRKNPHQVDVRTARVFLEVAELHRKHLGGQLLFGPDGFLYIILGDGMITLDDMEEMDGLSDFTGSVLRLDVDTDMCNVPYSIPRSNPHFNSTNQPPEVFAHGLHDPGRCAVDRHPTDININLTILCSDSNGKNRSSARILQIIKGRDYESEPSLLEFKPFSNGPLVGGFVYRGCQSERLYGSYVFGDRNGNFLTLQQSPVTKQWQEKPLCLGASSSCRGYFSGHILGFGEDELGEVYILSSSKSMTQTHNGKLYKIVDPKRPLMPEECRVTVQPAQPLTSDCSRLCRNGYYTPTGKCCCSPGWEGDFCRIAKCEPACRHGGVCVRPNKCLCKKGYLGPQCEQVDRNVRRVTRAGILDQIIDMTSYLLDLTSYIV
# B1: Desert hedgehog (Dhh) (ligand)
# chain: not shown
# Target: T1, murine HIP polypeptide (mouse hedgehog …)
# Assay: ligand-receptor binding study
binder,measurement,value
B1,Kd,~1 nM
